Twelve molecules from publication PMC5663475, “SAV1 promotes Hippo kinase activation through antagonizing the PP2A phosphatase STRIPAK” (eLife, 2017) can be followed below.

The term Kd denotes the concentration at which binding is half-saturated.

Non-standard residues stand in square brackets, D forms with d. No end group written: not given here. pT = C[C@@H](OP(=O)(O)O)[C@H](N)C(=O)O

Assay [1] concerns MCF10A cells. Briefly: Immunoblot of Hippo pathway phosphorylation after latrunculin B treatment. In kind it is cell-based, human. Particulars: LatB 1 μg/ml, 1 hr. How it is done:
293FT cells (Thermo Scientific, catalogue #R70007; not independently authenticated) were cultured in DMEM supplemented with 10% fetal bovine serum, 2 mM L-glutamine and 1% penicillin/streptomycin. MCF10A cells (ATCC, catalogue #CRL-10317; not independently authenticated) were cultured in DMEM/F12 containing 5% horse serum, 20 ng/ml EGF, 0.5 μg/ml hydrocortisone, 100 ng/ml cholera toxin, 10 μg/ml insulin and 1% penicillin/streptomycin. All cells were incubated at 37°C in a humidified 5% CO2 atmosphere. All cell lines were checked by 4’,6-diamidino-2-phenylindole (DAPI) staining to ascertain that they were free of mycoplasma contamination. Transient transfection of 293FT cells was performed with Lipojet (Signagen). Cells were collected for further experiments after 24 hr. siRNA transfection was performed with Lipofectamine RNAiMAX (Invitrogen, Waltham, MA) according to manufacturer’s instructions. The following siRNAs were synthesized by Dharmacon and used in this study: siSLMAP #1, […]dTdT; siSLMAP #2, […]dTdT; siSTRIP1, […]dTdT.
Rabbit polyclonal MST2 phospho-T336 antibody was raised against the MST2 phospho-peptide with the sequence of ESVGpTMRATC at an on-campus facility. Generation of the MST2 phospho-T378 antibody was described previously ([Ni et al., 2015]). […] For immunoblotting, cell lysates and immunoprecipitates were analyzed by standard immunoblotting. The membranes were scanned and band intensities were quantified by the Odyssey Infrared Imaging System (LI-COR). […] We quantified phospho- and total protein bands in a set of three independent experiments. […] The ratios of normalized phospho-proteins versus normalized total proteins were calculated and plotted. […]

Assay [2] concerns the target MOB1^33-216 (human) (UniProt Q9H8S9). Briefly: ITC; MicroCal iTC200, 20 °C; 50 µM protein in the cell titrated with 500 µM phospho-peptide; 20 mM Tris pH 8.0, 50 mM NaCl (5% DMSO for pT325-MST2 320-329); A + B <-> AB model.
Assay [3] concerns the target T1, SLMAP FHA (residues 1–140) (human, UniProt Q14BN4 1-140).
T1 construct: SLMAP, human, FHA domain, residues 1-140; also called SLMAP FHA domain; apo-SLMAP FHA; source: E. coli BL21 (DE3)-T1R, purified (glutathione-Sepharose, TEV cleavage, Superdex 75); not shown: GST, N-terminal, cleaved
T1 sequence (looked up): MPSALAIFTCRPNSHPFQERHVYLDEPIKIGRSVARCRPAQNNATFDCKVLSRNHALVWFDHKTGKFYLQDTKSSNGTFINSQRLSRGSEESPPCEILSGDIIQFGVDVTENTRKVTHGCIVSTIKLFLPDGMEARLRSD
The description is as above. Particulars: both partners purified.

Assay [4] concerns the target T2, SLMAP FHA/R32A (human, UniProt Q14BN4 1-140, R32A).
T2 construct: SLMAP, human, FHA domain, residues 1-140, R32A; also called SLMAP FHA/R32A mutant; source: E. coli BL21 (DE3)-T1R, purified (glutathione-Sepharose, TEV cleavage, Superdex 75); not shown: GST, N-terminal, cleaved
T2 sequence (looked up): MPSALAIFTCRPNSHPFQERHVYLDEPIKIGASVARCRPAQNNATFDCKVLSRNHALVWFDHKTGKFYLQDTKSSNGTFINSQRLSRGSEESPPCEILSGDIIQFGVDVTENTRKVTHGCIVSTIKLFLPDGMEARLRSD
The description is as above. As to conditions: both partners purified.

The subject of assay [5] is MST2 SARAH. Briefly: In vitro pull-down of 35S-labeled SAV1 SARAH by GST-MST2 SARAH. In kind it is binding, human. As to conditions: GST-MST2 SARAH pull-down of in vitro translated 35S-labeled Myc-SAV1 SARAH (residues 321–383), SDS-PAGE, autoradiography. As for the experimental part: To assay the heterodimerization of SARAH domains between MST2 and SAV1, Myc-tagged SAV1 SARAH (residues 321–383) and the corresponding mutants were in vitro translated in reticulocyte lysate in the presence of ^35S-methionine according to the manufacturer’s protocol (Pierce). Purified GST-MST2 SARAH (residues 430–491) fusion protein was bound to glutathione-Sepharose beads and incubated with ^35S-labeled SAV1 SARAH WT and mutants. The beads were washed three times with TBS containing 0.05% (v/v) Tween. The proteins retained on the beads were analyzed by SDS-PAGE followed by autoradiography.

Assay [6] concerns MST2. Briefly: MST2-SAV1 autophosphorylation (pT180). Type of assay: biochemical, human. As to conditions: 2.5 µM MST2-SAV1 complex, dephosphorylated by 0.5 µM PP2A A-C, then 5 µM okadaic acid; 2 mM ATP, anti-pT180 blot; at least two independent experiments. As for the experimental part: For assaying MST2-SAV1 autophosphorylation, 2.5 µM MST2-SAV1-ΔN198 or MST2-SAV1-ΔN268 was dephosphorylated by 0.5 µM PP2A A-C core complex for 30 min at room temperature. Okadaic acid was then added to a final concentration of 5 µM and the reaction mixture was incubated on ice for another 30 min. The reaction mixture was diluted by a ratio of 1:5 at room temperature with a kinase reaction buffer containing 50 mM Tris (pH 7.5), 150 mM NaCl, 5 mM MgCl2, 2 mM ATP, and 1 mM DTT. At different time intervals, autophosphorylation was terminated by adding 2X SDS loading buffer and boiling for 5 min in 100 °C water bath. All samples were separated by SDS-PAGE and blotted by a specific antibody against pT180 of MST2.

`C/C1=C/C(=O)O[C@@H]2C[C@@H](CC[C@H](C)/C=C\CC1)O[C@@](O)([C@@H]1CSC(=O)N1)C2` [LatB, Latrunculin B]: in assay [1], the “MOB1 T35 phosphorylation” value is on record as “induced”; the “MST1/2 T-loop phosphorylation” value was “induced”; the “downstream phosphorylation of LATS1/2 and YAP” value was “induced”.

B1: pT378-MST2^373-382 (peptide)
peptide: EEEDG[pT]MKRN
notes: MST2, human, linker residues 373-382; also called pMST2; source: synthetic peptide
Consider B1, for which the dH in assay [2] is -4 kcal/mol; in assay [3], -9 kcal/mol; in assay [4] it was -6.7 kcal/mol. In addition, the dissociation constant Kd was found to be 160 nM in assay [3] and 18800 nM in assay [4].

B2: pT325-MST2^320-329 (peptide)
peptide: ELDSH[pT]MVKT
notes: MST2, human, linker residues 320-329; source: synthetic peptide
On to B2, for which, in assay [3], the dissociation constant Kd is 392 nM and the dH is -10.3 kcal/mol.

B3: SAV1 E346A: SAV1 SARAH (residues 321–383) mutant (protein)
chain: ILKWELFQLADLDTYQGMLKLLFMKALEQIVKMYEAYRQALLTELENRKQRQQWYAQQHGKNF
modifications: not fully specified (N-terminus); also: 35S-methionine labelled, Myc tag, end not given here
notes: SAV1 SARAH (residues 321–383) mutant
As to B3, the “binding of SAV1 SARAH mutant to MST2” value in assay [5] was “completely lost the binding to MST2”.

B4: Y357A: SAV1 SARAH (residues 321–383) mutant (protein, UniProt Q9H4B6 321-383, looked up, variant Y357A)
chain: ILKWELFQLADLDTYQGMLKLLFMKELEQIVKMYEAARQALLTELENRKQRQQWYAQQHGKNF
modifications: SARAH domain
notes: as for B3
B4: the “binding of SAV1 SARAH mutant to MST2” value in assay [5] is given as “completely lost the binding to MST2”.

B5: L361A: SAV1 SARAH (residues 321–383) mutant (protein, UniProt Q9H4B6 321-383, looked up, variant L361A)
chain: ILKWELFQLADLDTYQGMLKLLFMKELEQIVKMYEAYRQAALTELENRKQRQQWYAQQHGKNF
modifications: SARAH domain
notes: as for B3
As to B5, the “binding of SAV1 SARAH mutant to MST2” value in assay [5] is given as “completely lost the binding to MST2”.

B6: L365A: SAV1 SARAH (residues 321–383) mutant (protein, UniProt Q9H4B6 321-383, looked up, variant L365A)
chain: ILKWELFQLADLDTYQGMLKLLFMKELEQIVKMYEAYRQALLTEAENRKQRQQWYAQQHGKNF
modifications: SARAH domain
notes: as for B3
Consider B6, for which the “binding of SAV1 SARAH mutant to MST2” value in assay [5] is “completely lost the binding to MST2”.

B7: I350A: SAV1 SARAH (residues 321–383) mutant (protein, UniProt Q9H4B6 321-383, looked up, variant I350A)
chain: ILKWELFQLADLDTYQGMLKLLFMKELEQAVKMYEAYRQALLTELENRKQRQQWYAQQHGKNF
modifications: SARAH domain
notes: as for B3
Regarding B7, the “binding of SAV1 SARAH mutant to MST2” value in assay [5] is “completely lost the binding to MST2”.

B8: R368A: SAV1 SARAH (residues 321–383) mutant (protein, UniProt Q9H4B6 321-383, looked up, variant R368A)
chain: ILKWELFQLADLDTYQGMLKLLFMKELEQIVKMYEAYRQALLTELENAKQRQQWYAQQHGKNF
modifications: SARAH domain
notes: as for B3
On to B8, for which the “binding of SAV1 SARAH mutant to MST2” value in assay [5] is on record as “completely lost the binding to MST2”.

B9: SAV1 ∆N268: SAV1 SARAH alone (protein, UniProt Q9H4B6 269-383, looked up, fragment)
chain: SVPRYDQPPPVTYQPQQTERNQSLLVPANPYHTAEIPDWLQVYARAPVKYDHILKWELFQLADLDTYQGMLKLLFMKELEQIVKMYEAYRQALLTELENRKQRQQWYAQQHGKNF
Regarding B9, the “MST2 activation (T180 autophosphorylation) in vitro” value in assay [6] is “blocked MST2 activation in vitro”.

B10: pT378-MST2^371-401 (peptide)
peptide: DEEEEDG[pT]MKRNATSPQVQRPSFMDYFDKQD
notes: MST2, human, linker residues 371-401; source: synthetic peptide
Regarding B10, in assay [2], the dH is -13.5 kcal/mol. Besides, in assay [3], the Kd came to 393 nM and the dH is -9.5 kcal/mol.

B11: pT336-MST2^331-340 (peptide)
peptide: VESVG[pT]MRAT
notes: MST2, human, linker residues 331-340; source: synthetic peptide
Take B11: in assay [3], the Kd is 1140 nM and the dH was -8.2 kcal/mol.
